Measurements taken from publication doi:10.1101/2024.12.09.627393 (bioRxiv, 2024).

Molecular target: T1, histone H4K5acK8acK12acK16ac residues 1–23 peptide (dCypher) (UniProt P62805 2-24, acetyl-lysine at 5, 8, 12 and 16)
T1 construct: histone H4 residues 1-23; also called H4Tetra^ac
Test: AlphaScreen or HTRF; dCypher: GST-CECR2-BRD titrated against histone peptides (100 nM); glutathione Acceptor and streptavidin Donor beads; 50 mM Tris pH 7.5, 50 mM NaCl, 0.01% Tween-20, 0.01% BSA, 1 mM TCEP, 0.0004% Poly-L-Lysine; room temperature; relative EC50 (EC50^rel)
Details: both partners purified

EC50: 7.2 nM
B1: GST-CECR2-BRD (GST tag retained, for dCypher assays) (domain or fragment)
chain: not shown
notes: human CECR2 bromodomain, amino acids 424-538 of UniProt Q9BXF3-1, codon optimized for E. coli, in pGEX-6P-1; PreScission Protease site between GST and the bromodomain; source: E. coli BL21(DE3) pLysS, purified (glutathione agarose, eluted with reduced glutathione, dialysed); not shown: GST, N-terminal, kept
